Laboratory results reported in patent US20230372526A1, “PREPARATION METHOD FOR BIS-S[…] ANTIBODY-DRUG CONJUGATE” (MABWELL (SHANGHAI) BIOSCIENCE CO., LTD., priority 2020, published 2023).

Test: Hydrolysis of Pertuzumab conjugated samples obtained using different small molecule compounds, hydrolysis percentage by Native MS
Format: physicochemical
Details: for hydrolysis of conjugated samples (in words) / 6 h hydrolysis percentage / 18 h hydrolysis percentage: 50 mM PB pH 7.8, 35° C.; for hydrolysis of conjugated samples (in words): summary of Table 3-2; for hydrolysis speed of conjugated samples (in words): hydrolysis systems A-D, pH 7.8, summary of Table 3-3
Description: The analysis conditions were as follows: • Capillary activation: the capillary was rinsed with 0.1 mol/L sodium hydroxide for 10 min, 0.1 mol/L hydrochloric acid for 5 min and water for injection for 2 min respectively at 20 psi; and then rinsed with SDS-MW-Gel Buffer for 10 min at 70 psi; afterwards, pre-separation was performed for 10 min at 20 psi, at a column temperature of 25° C. and a voltage of −15 kv. The program was run: at 70 psi, the capillary was rinsed with 0.1 mol/L sodium hydroxide for 3 min, 0.1 mol/L hydrochloric acid for 1 min and water for injection for 1 min respectively; then the gel was poured for 10 min, the sample was loaded for 40 s at −5 kv, and the separation program was run ([…], 20 psi). The column temperature was set to 25° C., the voltage for separation was set to −15 kv, and the separation was performed for 40 min. • (4) Size exclusion chromatography (SEC-HPLC): • Sample treatment: the sample was diluted to 2.0-3.0 mg/ml with the mobile phase, and then was centrifuged at 12000 rpm for 10 min; and the supernatant was taken for analysis. • Chromatographic column: TOSOH, TSKgel G3000SWXL, 5 μm, 7.8 mm×300 mm; • Mobile phase: 100 mM PB+200 mM arginine hydrochloride, 5% isopropanol (pH 6.8); • Flow rate: 0.6 mL/min; • Detection wavelength: 280 nm; • Column temperature: 30° C.; • Loading volume: 10 uL; • Elution gradient: isocratic elution. • (5) Native MS: • Chromatographic column: ACQUITY UPLC Protein BEH SEC 200A (1.7 μm, 2.1 mm×150 mm); • Mobile phase: 50 mM ammonium acetate; • Running time: 12 min; • Flow rate: 0.065 mL/min; • Loading volume: 2 μL; • Column temperature: 30° C.; • Detection wavelength: 280 nm; • Capillary: 3.0 kV; • Cone voltage: 140 V; • Source offset: 80 V; • Source temperature: 125° C.; • Desolvation temperature: 250° C.; • Desolvation gas flow: 600 L/h. • (6) LC-MS:
Pertuzumab was reduced and conjugated as described in section a in Example 2. Conjugated samples obtained using different small molecule compounds were subjected to hydrolysis at 35° C. for a time period in the range of 3-18 hours, in 50 mM sodium dihydrogen phosphate-disodium hydrogen phosphate buffer, pH 7.8. The hydrolysis systems were sampled at different time points, and detected by Native MS.
Pertuzumab was reduced and conjugated as described in section a in Example 2. Conjugated samples obtained using different small molecule compounds were displaced to different hydrolysis solution systems (A: 50 mM sodium dihydrogen phosphate-disodium hydrogen phosphate buffer, pH 7.8; B: 50 mM sodium dihydrogen phosphate-disodium hydrogen phosphate buffer+3% arginine, pH 7.8; C: 50 mM potassium dihydrogen phosphate-dipotassium hydrogen phosphate buffer, pH 7.8; and D: 50 mM tromethamine-hydrochloric acid buffer, pH 7.8) for hydrolysis. Then the hydrolysis systems were sampled at different time points, and detected by Native MS.

[1] = Pertuzumab conjugate, Native MS
[2] = Pertuzumab conjugate, 50 mM sodium dihydrogen phosphate-disodium hydrogen phosphate buffer, pH 7.8, 35° C., Native MS
[3] = hydrolysis system A: 50 mM sodium dihydrogen phosphate-disodium hydrogen phosphate buffer, pH 7.8
[4] = hydrolysis system B: 50 mM sodium phosphate buffer+3% arginine, pH 7.8
[5] = hydrolysis system C: 50 mM potassium dihydrogen phosphate-dipotassium hydrogen phosphate buffer, pH 7.8
[6] = hydrolysis system D: 50 mM tromethamine-hydrochloric acid buffer, pH 7.8

| Compound | hydrolysis of conjugated samples (in words) | 6 h hydrolysis percentage [1] | 18 h hydrolysis percentage [1] | 3 h hydrolysis percentage [2] | 1 h hydrolysis percentage [3] | 3 h hydrolysis percentage [3] | 1 h hydrolysis percentage [4] | 3 h hydrolysis percentage [4] | 1 h hydrolysis percentage [5] | 3 h hydrolysis percentage [5] | 1 h hydrolysis percentage [6] | 3 h hydrolysis percentage [6] | hydrolysis speed of conjugated samples (in words) |
| --- | --- | --- | --- | --- | --- | --- | --- | --- | --- | --- | --- | --- | --- |
| CCC(C)[C@@H]([C@@H](CC(=O)N1CCC[C@H]1[C@H](OC)[C@@H](C)C(=O)N[C@H](C)[C@@H](O)c1ccccc1)OC)N(C)C(=O)[C@@H](NC(=O)[C@H](C(C)C)N(C)C(=O)OCc1ccc(NC(=O)[C@H](CCCNC(N)=O)NC(=O)[C@@H](NC(=O)COCCOCCOCCOc2c(OC)cc(N3C(=O)C(Sc4ccccc4)=C(Sc4ccccc4)C3=O)cc2OC)C(C)C)cc1)C(C)C (stereo partly shown) [A-2] | relatively low percentage of hydrolysis | 30.33% | 48.43% | 17.85% | – | – | – | – | – | – | – | – | – |
| CCC(C)[C@@H]([C@@H](CC(=O)N1CCC[C@H]1[C@H](OC)[C@@H](C)C(=O)N[C@H](C)[C@@H](O)c1ccccc1)OC)N(C)C(=O)[C@@H](NC(=O)[C@H](C(C)C)N(C)C(=O)OCc1ccc(NC(=O)[C@H](CCCNC(N)=O)NC(=O)[C@@H](NC(=O)COCCOCCOCCOc2c(F)cc(N3C(=O)C(Sc4ccccc4)=C(Sc4ccccc4)C3=O)cc2F)C(C)C)cc1)C(C)C (stereo partly shown) [A-3] | – | – | – | – | 89.31% | 99.32% | 93.48% | 99.41% | 92.52% | 99.70% | 90.33% | 99.31% | hydrolyzed rapidly in all above buffers |
| CCC(C)[C@@H]([C@@H](CC(=O)N1CCC[C@H]1[C@H](OC)[C@@H](C)C(=O)N[C@H](C)[C@@H](O)c1ccccc1)OC)N(C)C(=O)[C@@H](NC(=O)[C@H](C(C)C)N(C)C(=O)OCc1ccc(NC(=O)[C@H](CCCNC(N)=O)NC(=O)[C@@H](NC(=O)COCCOCCOCCOc2ccc(N3C(=O)C(Sc4ccccc4)=C(Sc4ccccc4)C3=O)c(C(F)(F)F)c2)C(C)C)cc1)C(C)C (stereo partly shown) [A-4] | relatively low percentage of hydrolysis | 38.49% | 53.46% | 25.99% | 15.65% | 25.99% | 18.17% | 35.23% | 14.98% | 26.13% | 14.56% | 25.32% | required more time for being hydrolyzed |
| CCC(C)[C@@H]([C@@H](CC(=O)N1CCC[C@H]1[C@H](OC)[C@@H](C)C(=O)N[C@H](C)[C@@H](O)c1ccccc1)OC)N(C)C(=O)[C@@H](NC(=O)[C@H](C(C)C)N(C)C(=O)OCc1ccc(NC(=O)[C@H](CCCNC(N)=O)NC(=O)[C@@H](NC(=O)COCCOCCOCCOc2ccc(N3C(=O)C(Sc4ccccc4)=C(Sc4ccccc4)C3=O)cn2)C(C)C)cc1)C(C)C (stereo partly shown) [A-5] | – | 16.76% | 28.81% | 7.29% | – | – | – | – | – | – | – | – | – |
| CCC(C)[C@@H]([C@@H](CC(=O)N1CCC[C@H]1[C@H](OC)[C@@H](C)C(=O)N[C@H](C)[C@@H](O)c1ccccc1)OC)N(C)C(=O)[C@@H](NC(=O)[C@H](C(C)C)N(C)C(=O)OCc1ccc(NC(=O)[C@H](CCCNC(N)=O)NC(=O)[C@@H](NC(=O)COCCOCCOCCOc2ccc(N3C(=O)C(Sc4ccc(C(=O)NC)cc4)=C(Sc4ccc(C(=O)NC)cc4)C3=O)cc2C(F)(F)F)C(C)C)cc1)C(C)C (stereo partly shown) [B-6] | relatively low percentage of hydrolysis | 33.32% | 47.60% | 22.86% | – | – | – | – | – | – | – | – | – |
| CCC(C)[C@@H]([C@@H](CC(=O)N1CCC[C@H]1[C@H](OC)[C@@H](C)C(=O)N[C@H](C)[C@@H](O)c1ccccc1)OC)N(C)C(=O)[C@@H](NC(=O)[C@H](C(C)C)N(C)C(=O)OCc1ccc(NC(=O)[C@H](CCCNC(N)=O)NC(=O)[C@@H](NC(=O)COCCOCCOCCOc2ccc(N3C(=O)C(Sc4ccc(C(=O)NC)cc4)=C(Sc4ccc(C(=O)NC)cc4)C3=O)cc2OC)C(C)C)cc1)C(C)C (stereo partly shown) [B-7] | relatively low percentage of hydrolysis | 54.71% | 76.15% | 34.10% | 15.83% | 34.10% | 26.12% | 51.25% | 15.12% | 35.12% | 16.62% | 36.43% | required more time for being hydrolyzed |
| CCC(C)[C@@H]([C@@H](CC(=O)N1CCC[C@H]1[C@H](OC)[C@@H](C)C(=O)N[C@H](C)[C@@H](O)c1ccccc1)OC)N(C)C(=O)[C@@H](NC(=O)[C@H](C(C)C)N(C)C(=O)OCc1ccc(NC(=O)[C@H](CCCNC(N)=O)NC(=O)[C@@H](NC(=O)COCCOCCOCCOc2ccc(N3C(=O)C(Sc4ccc(C(=O)N5CCOCC5)cc4)=C(Sc4ccc(C(=O)N5CCOCC5)cc4)C3=O)cc2)C(C)C)cc1)C(C)C (stereo partly shown) [C-1] | hydrolyzed all most completely within 3 hours or 6 hours | 98.25% | – | 79.08% | 85.31% | 99.56% | 94.52% | 99.87% | 87.52% | 99.70% | 84.78% | 99.79% | hydrolyzed rapidly in all above buffers |
| CCC(C)[C@@H]([C@@H](CC(=O)N1CCC[C@H]1[C@H](OC)[C@@H](C)C(=O)N[C@H](C)[C@@H](O)c1ccccc1)OC)N(C)C(=O)[C@@H](NC(=O)[C@H](C(C)C)N(C)C(=O)OCc1ccc(NC(=O)[C@H](CCCNC(N)=O)NC(=O)[C@@H](NC(=O)COCCOCCOCCOc2c(F)cc(N3C(=O)C(Sc4ccc(C(=O)N5CCOCC5)cc4)=C(Sc4ccc(C(=O)N5CCOCC5)cc4)C3=O)cc2F)C(C)C)cc1)C(C)C (stereo partly shown) [C-3] | hydrolyzed all most completely within 3 hours or 6 hours | 99.56% | – | 98.31% | 90.31% | 99.56% | 97.52% | 99.41% | 90.55% | 99.70% | 88.36% | 99.34% | hydrolyzed rapidly in all above buffers |
